This passage reports % inhibition (median) results from patent publication US20180231567A1.

Assay [1] concerns the target serum IgE of the 10 allergic adults sensitized to peanut extract used for the inhibition experiments (Example 3) (human). The assay is described as follows: ELISA cross-inhibition; Ara h 7.0201 immobilized, sera pre-incubated with competing allergen at 0.1, 1 and 10 ug/ml.
Assay [2] has the same target. The assay is described as follows: ELISA cross-inhibition; Ara h 6 immobilized, sera pre-incubated with competing allergen at 0.1, 1 and 10 ug/ml. A general note: ELISA stands for enzyme-linked immunosorbent assay.

B1: Ara h 2 isotype 2.0201, as expressed in example 1 (His fusion protein) (protein)
chain: MSHHHHHHIEGRTMRQQWELQGDRRCQSQLERANLRPCEQHLMQKIQRDEDSYGRDPYSPSQDPYSPSQDPDRRDPYSPSPYDRRGAGSSQHQERCCNELNEFENNQRCMCEALQQIMENQSDRLQGRQQEQQFKRELRNLPQQCGLRAPQRCDLEVESGGRDRY
In the case of B1, the % inhibition (median) in assay [1] turned out to be 16%; in assay [2], 43%.
